# Data as given in publication PMC10986514.
# Biological target: SARS-CoV-2 RBD single mutant E484K (SARS-CoV-2) (UniProt P0DTC2)
# Assay: peptide or protein array
row,Substance,percent decrease of the binding signal against wild-type RBD [%]
1,"Tri-TMH multimodular nanobody (Ty1, MR17-K99Y and H11-H4 modules) (VHH)",60
2,"Tri-TMV multimodular nanobody (Ty1, MR17-K99Y and VHH V modules)",40
3,Tri-Ty1 multimodular nanobody (three Ty1 modules) (VHH),96
